From patent US20030068675, “Position dependent recognition of GNN nucleotide triplets by zinc fingers” (published 2003)

Assays:
Assay in all cases: EMSA
Settings in all cases: tags: MBP fusion
[1] = target: T1, ZFP SBS#1258 (synthetic, UniProt P08047)
T1 chain: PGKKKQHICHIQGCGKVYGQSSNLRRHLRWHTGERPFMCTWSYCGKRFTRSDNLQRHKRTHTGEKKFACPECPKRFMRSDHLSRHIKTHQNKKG
Method in brief: (§1)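 Purified ZFP was titrated against labeled double-stranded target (1 nM or lower, at least 10-fold below expected Kd) carrying the natural binding site with flanks. Binding buffer was 10 mM Tris pH 7.5, 100 mM KCl, 1 mM MgCl2, 0.1 mM ZnCl2, 5 mM DTT, 10% glycerol, 0.02% BSA, with equilibration for at least 45 min. Bound and free target were separated on a 10% polyacrylamide gel.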

[2] = target: T2, ZFP SBS#1257 (synthetic, UniProt P08047)
T2 chain: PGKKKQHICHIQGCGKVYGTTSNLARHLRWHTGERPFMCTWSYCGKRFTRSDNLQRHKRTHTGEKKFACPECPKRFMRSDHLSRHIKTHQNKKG
Method in brief: as §1

[3] = target: T3, ZFP SBS#541 (synthetic, UniProt P08047)
T3 chain: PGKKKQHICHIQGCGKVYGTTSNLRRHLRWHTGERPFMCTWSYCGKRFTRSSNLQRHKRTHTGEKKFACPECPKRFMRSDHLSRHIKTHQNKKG
Method in brief: as §1

[4] = target: T4, ZFP SBS#1003 (synthetic)
T4 chain: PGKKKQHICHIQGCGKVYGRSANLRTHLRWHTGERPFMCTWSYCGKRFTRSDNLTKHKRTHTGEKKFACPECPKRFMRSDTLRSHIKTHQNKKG
Method in brief: as §1

[5] = target: T5, ZFP SBS#1020 (synthetic)
T5 chain: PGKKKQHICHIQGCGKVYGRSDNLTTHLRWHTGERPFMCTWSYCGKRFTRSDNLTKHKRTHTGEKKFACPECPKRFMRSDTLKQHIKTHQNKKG
Method in brief: as §1

[6] = target: ZFP SBS#998 (synthetic)
Chain of ZFP SBS#998 (synthetic) (chain, as listed by the source): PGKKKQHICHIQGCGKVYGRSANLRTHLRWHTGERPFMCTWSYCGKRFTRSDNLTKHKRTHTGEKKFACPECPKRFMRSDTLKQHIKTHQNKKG
Method in brief: as §1

[7] = target: T6, ZFP SBS#1255 (synthetic)
T6 chain: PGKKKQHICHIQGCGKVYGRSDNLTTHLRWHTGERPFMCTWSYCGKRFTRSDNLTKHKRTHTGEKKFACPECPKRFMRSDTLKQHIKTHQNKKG
Method in brief: as §1

[8] = target: T7, ZFP SBS#1004 (synthetic)
T7 chain: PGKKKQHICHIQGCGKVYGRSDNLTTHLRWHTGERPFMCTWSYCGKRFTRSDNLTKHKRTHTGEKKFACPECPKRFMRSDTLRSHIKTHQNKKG
Method in brief: as §1

[9] = target: ZFP SBS#1234 (synthetic)
Chain of ZFP SBS#1234 (synthetic) (chain, as listed by the source): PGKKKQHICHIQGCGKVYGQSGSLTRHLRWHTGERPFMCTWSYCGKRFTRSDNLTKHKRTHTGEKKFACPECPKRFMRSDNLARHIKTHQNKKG
Method in brief: as §1

[10] = target: ZFP SBS#1236 (synthetic)
Chain of ZFP SBS#1236 (synthetic) (chain, as listed by the source): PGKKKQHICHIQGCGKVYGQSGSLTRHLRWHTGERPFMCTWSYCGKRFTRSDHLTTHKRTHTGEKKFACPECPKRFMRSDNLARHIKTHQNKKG
Method in brief: as §1

[11] = target: T8, ZFP SBS#1278 (synthetic)
T8 chain: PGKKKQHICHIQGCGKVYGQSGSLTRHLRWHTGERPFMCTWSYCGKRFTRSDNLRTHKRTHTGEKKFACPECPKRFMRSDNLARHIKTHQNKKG
Method in brief: as §1

[12] = target: ZFP SBS#1250 (synthetic)
Chain of ZFP SBS#1250 (synthetic) (chain, as listed by the source): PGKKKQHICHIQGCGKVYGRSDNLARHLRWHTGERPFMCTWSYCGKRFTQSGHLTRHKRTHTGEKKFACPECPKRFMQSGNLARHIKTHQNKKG
Method in brief: as §1

[13] = target: ZFP SBS#1237 (synthetic)
Chain of ZFP SBS#1237 (synthetic) (chain, as listed by the source): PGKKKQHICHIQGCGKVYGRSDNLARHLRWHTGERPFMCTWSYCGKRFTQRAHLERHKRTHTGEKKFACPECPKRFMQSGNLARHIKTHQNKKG
Method in brief: as §1

[14] = target: T9, ZFP SBS#1241 (synthetic)
T9 chain: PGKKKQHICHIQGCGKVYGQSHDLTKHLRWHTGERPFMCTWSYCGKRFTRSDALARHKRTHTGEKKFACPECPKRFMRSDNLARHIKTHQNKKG
Method in brief: as §1

[15] = target: ZFP SBS#1279 (synthetic)
Method in brief: as §1

[16] = target: T10, ZFP SBS#1247 (synthetic)
T10 chain: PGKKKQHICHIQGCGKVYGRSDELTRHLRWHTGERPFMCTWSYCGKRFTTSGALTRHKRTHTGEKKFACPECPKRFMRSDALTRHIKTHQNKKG
Method in brief: as §1

[17] = target: T11, ZFP SBS#1246 (synthetic)
T11 chain: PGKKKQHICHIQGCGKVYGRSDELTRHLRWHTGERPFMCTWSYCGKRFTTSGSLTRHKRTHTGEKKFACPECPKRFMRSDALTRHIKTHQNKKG
Method in brief: as §1

[18] = target: T12, ZFP SBS#1249 (synthetic)
T12 chain: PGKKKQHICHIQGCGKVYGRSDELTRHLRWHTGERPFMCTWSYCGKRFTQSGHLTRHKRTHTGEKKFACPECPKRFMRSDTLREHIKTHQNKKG
Method in brief: as §1

[19] = target: T13, ZFP SBS#1253 (synthetic)
T13 chain: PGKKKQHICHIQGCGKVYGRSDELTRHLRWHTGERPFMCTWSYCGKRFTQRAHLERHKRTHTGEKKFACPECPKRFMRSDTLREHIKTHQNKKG
Method in brief: as §1

[20] = target: T14, ZFP SBS#261 (synthetic)
T14 chain: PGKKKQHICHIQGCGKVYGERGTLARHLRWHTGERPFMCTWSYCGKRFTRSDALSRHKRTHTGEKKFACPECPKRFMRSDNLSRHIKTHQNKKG
Method in brief: as §1

[21] = target: ZFP SBS#490 (synthetic)
Chain of ZFP SBS#490 (synthetic) (chain, as listed by the source): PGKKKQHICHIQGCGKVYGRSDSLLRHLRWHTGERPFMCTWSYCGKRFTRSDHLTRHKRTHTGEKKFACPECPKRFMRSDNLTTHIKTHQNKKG
Method in brief: as §1

[22] = target: T15, ZFP SBS#1259 (synthetic)
T15 chain: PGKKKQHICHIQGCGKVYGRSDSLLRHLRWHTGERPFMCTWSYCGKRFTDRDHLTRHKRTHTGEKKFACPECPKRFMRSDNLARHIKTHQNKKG
Method in brief: as §1

[23] = target: T16, ZFP SBS#1260 (synthetic)
T16 chain: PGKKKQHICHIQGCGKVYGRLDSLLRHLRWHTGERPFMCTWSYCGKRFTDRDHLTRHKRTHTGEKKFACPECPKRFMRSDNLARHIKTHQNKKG
Method in brief: as §1

[24] = target: T17, ZFP SBS#1264 (synthetic)
T17 chain: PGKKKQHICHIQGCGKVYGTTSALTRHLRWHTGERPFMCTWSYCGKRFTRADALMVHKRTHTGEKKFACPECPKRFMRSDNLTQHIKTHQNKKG
Method in brief: as §1

[25] = target: T18, ZFP SBS#1265 (synthetic)
T18 chain: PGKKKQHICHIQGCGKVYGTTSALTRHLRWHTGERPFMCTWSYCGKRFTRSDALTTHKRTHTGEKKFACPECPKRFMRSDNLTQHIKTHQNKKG
Method in brief: as §1

[26] = target: T19, ZFP SBS#1266 (synthetic)
T19 chain: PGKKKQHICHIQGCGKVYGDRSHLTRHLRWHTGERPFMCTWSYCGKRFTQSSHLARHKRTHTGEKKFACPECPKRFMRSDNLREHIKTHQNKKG
Method in brief: as §1

[27] = target: T20, ZFP SBS#1288 (synthetic)
T20 chain: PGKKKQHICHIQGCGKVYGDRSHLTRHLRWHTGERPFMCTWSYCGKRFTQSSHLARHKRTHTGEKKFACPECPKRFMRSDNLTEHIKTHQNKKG
Method in brief: as §1

[28] = target: T21, ZFP SBS#1268 (synthetic)
T21 chain: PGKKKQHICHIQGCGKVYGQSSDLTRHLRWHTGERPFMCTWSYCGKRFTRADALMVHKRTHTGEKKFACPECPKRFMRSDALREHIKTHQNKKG
Method in brief: as §1

[29] = target: T22, ZFP SBS#1269 (synthetic)
T22 chain: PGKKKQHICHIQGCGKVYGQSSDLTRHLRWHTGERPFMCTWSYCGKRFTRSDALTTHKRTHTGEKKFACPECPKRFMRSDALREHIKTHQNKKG
Method in brief: as §1

[30] = target: T23, ZFP SBS#1271 (synthetic)
T23 chain: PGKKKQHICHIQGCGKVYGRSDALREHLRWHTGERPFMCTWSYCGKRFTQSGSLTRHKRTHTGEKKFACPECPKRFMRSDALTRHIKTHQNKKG
Method in brief: as §1

[31] = target: ZFP SBS#1274 (synthetic)
Chain of ZFP SBS#1274 (synthetic) (chain, as listed by the source): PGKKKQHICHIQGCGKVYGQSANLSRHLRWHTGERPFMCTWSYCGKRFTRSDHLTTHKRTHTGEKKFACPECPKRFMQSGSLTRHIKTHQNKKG
Method in brief: as §1

[32] = target: ZFP SBS#1275 (synthetic)
Chain of ZFP SBS#1275 (synthetic) (chain, as listed by the source): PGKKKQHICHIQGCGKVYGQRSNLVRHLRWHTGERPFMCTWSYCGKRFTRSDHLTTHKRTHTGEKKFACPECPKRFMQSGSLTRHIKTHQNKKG
Method in brief: as §1

[33] = target: T24, ZFP SBS#1277 (synthetic)
T24 chain: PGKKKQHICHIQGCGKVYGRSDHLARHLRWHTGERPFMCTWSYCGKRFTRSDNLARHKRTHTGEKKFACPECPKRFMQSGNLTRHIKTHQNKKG
Method in brief: as §1

[34] = target: T25, ZFP SBS#1282 (synthetic)
T25 chain: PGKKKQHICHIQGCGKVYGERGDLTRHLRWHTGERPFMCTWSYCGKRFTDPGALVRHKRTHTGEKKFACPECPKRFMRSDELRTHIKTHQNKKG
Method in brief: as §1

[35] = target: T26, ZFP SBS#1287 (synthetic)
T26 chain: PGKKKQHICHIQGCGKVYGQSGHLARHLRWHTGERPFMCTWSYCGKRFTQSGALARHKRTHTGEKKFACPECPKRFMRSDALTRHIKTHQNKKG
Method in brief: as §1

B1: GGGGAGGAT (dsDNA)
DNA 1: GGGGAGGAT
DNA 2: ATCCTCCCC
In the case of B1, the Kd [1] is reported as 2 nM, the Kd [2] is reported as 1 nM and the Kd [3] is reported as 3 nM.

B2: ACGTAGTAG (dsDNA)
DNA 1: ACGTAGTAG
DNA 2: CTACTACGT
B2 showed a Kd [4] of 0.118 nM, a Kd [5] of 0.69 nM and a Kd [6] of 0.23 nM. For the same binder, the Kd [7] was 0.69 nM and the Kd [8] was 1.4 nM.

B3: GAGTAGGCA (dsDNA)
DNA 1: GAGTAGGCA
DNA 2: TGCCTACTC
B3 gave a Kd [9] of 0.101 nM, a Kd [10] of 0.065 nM and a Kd [11] of 0.019 nM.

B4: GAAGGAGAG (dsDNA)
DNA 1: GAAGGAGAG
DNA 2: CTCTCCTTC
In the case of B4, the Kd [12] is reported as 0.31 nM and the Kd [13] is reported as 0.065 nM.

B5: GAGGTGTCA (dsDNA)
DNA 1: GAGGTGTCA
DNA 2: TGACACCTC
With B5 the Kd [14] was 0.027 nM and the Kd [15] was 0.025 nM.

B6: GTGGTTGCG (dsDNA)
DNA 1: GTGGTTGCG
DNA 2: CGCAACCAC
With B6 the Kd [16] was 0.117 nM and the Kd [17] was 0.051 nM.

B7: CCGGGAGCG (dsDNA)
DNA 1: CCGGGAGCG
DNA 2: CGCTCCCGG
B7 was tested, and the Kd [18] was 0.26 nM and the Kd [19] was 0.228 nM.

B8: GAGGTGGCC (dsDNA)
DNA 1: GAGGTGGCC
DNA 2: GGCCACCTC
B8 showed a Kd [20] of 0.5 nM.

B9: TAGGGGGTGG (dsDNA)
DNA 1: TAGGGGGTGG
DNA 2: CCACCCCCTA
Work on B9 yielded a Kd [21] of 1.5 nM.

B10: GAGTGTGTG (dsDNA)
DNA 1: GAGTGTGTG
DNA 2: CACACACTC
For B10, the Kd [22] was 1.5 nM and the Kd [23] was 1.8 nM.

B11: AAGTTGGTT (dsDNA)
DNA 1: AAGTTGGTT
DNA 2: AACCAACTT
Binder B11 has a Kd [24] of 0.21 nM and a Kd [25] of 0.077 nM.

B12: CAGGGTGGC (dsDNA)
DNA 1: CAGGGTGGC
DNA 2: GCCACCCTG
In the case of B12, the Kd [26] is reported as 6.1 nM and the Kd [27] is reported as 4.1 nM.

B13: CTGTTGGCT (dsDNA)
DNA 1: CTGTTGGCT
DNA 2: AGCCAACAG
B13 showed a Kd [28] of 1.52 nM and a Kd [29] of 12.3 nM.

B14: GTGGCACTG (dsDNA)
DNA 1: GTGGCACTG
DNA 2: CAGTGCCAC
For B14, the Kd [30] was 0.915 nM.

B15: GCATGGGAA (dsDNA)
DNA 1: GCATGGGAA
DNA 2: TTCCCATGC
B15 was tested, and the Kd [31] was 0.306 nM and the Kd [32] was 0.326 nM.

B16: GAAGAGGGG (dsDNA)
DNA 1: GAAGAGGGG
DNA 2: CCCCTCTTC
With B16 the Kd [33] was 0.421 nM.

B17: TCGGTCGCC (dsDNA)
DNA 1: TCGGTCGCC
DNA 2: GGCGACCGA
Binder B17 has a Kd [34] of 74.1 nM.

B18: GTGGTAGGA (dsDNA)
DNA 1: GTGGTAGGA
DNA 2: TCCTACCAC
In the case of B18, the Kd [35] is reported as 0.152 nM.
